Assay results published in article PMC12901311, “HEXIM1 inter-monomer autoinhibition governs 7SK RNA binding specificity and P-TEFb inactivation” (Nature Communications, 2024).
Residue numbers refer to the chain shown, from its start. In names and notes the source's numbering stands. Several values for one entry are separate records, joined by “and”; a condition that tells them apart may be missing. Equal values may be shown once.

T1: Hexim1-A12m (human) (UniProt O94992)
T1 sequence: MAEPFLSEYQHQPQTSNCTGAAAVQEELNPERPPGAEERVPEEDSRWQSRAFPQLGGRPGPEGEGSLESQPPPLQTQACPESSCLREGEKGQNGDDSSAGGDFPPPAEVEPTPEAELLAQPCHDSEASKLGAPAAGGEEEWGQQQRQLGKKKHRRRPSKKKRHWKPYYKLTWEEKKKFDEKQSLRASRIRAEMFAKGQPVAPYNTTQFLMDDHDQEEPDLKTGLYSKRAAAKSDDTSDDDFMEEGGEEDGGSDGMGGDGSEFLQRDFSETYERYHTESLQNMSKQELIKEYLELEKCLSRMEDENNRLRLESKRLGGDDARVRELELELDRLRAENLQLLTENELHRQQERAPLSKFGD

T2: Hexim1-A3m (human) (UniProt O94992)
T2 sequence: T1 sequence

T3: Hexim1 BRARM1 (human, UniProt O94992 141-159)
T3 chain: WGQQQRQLGKKKHRRRPSK

B1: Full-length human Hexim1 protein (aa 1-359) (natural protein)
chain: GMAEPFLSEYQHQPQTSNCTGAAAVQEELNPERPPGAEERVPEEDSRWQSRAFPQLGGRPGPEGEGSLESQPPPLQTQACPESSCLREGEKGQNGDDSSAGGDFPPPAEVEPTPEAELLAQPCHDSEASKLGAPAAGGEEEWGQQQRQLGKKKHRRRPSKKKRHWKPYYKLTWEEKKKFDEKQSLRASRIRAEMFAKGQPVAPYNTTQFLMDDHDQEEPDLKTGLYSKRAAAKSDDTSDDDFMEEGGEEDGGSDGMGGDGSEFLQRDFSETYERYHTESLQNMSKQELIKEYLELEKCLSRMEDENNRLRLESKRLGGDDARVRELELELDRLRAENLQLLTENELHRQQERAPLSKFGD
notes: non-native glycine that remains at the N-terminus after TEV protease cleavage; Hexim1, human, aa 1-359; also called Hexim1 dimer; full-length Hexim1; not shown: His6, N-terminal, cleaved; MBP, N-terminal, cleaved
B2: Monomeric Hexim1 BR-L-AR (aa 142-253) (domain or fragment, human)
chain: GGQQQRQLGKKKHRRRPSKKKRHWKPYYKLTWEEKKKFDEKQSLRASRIRAEMFAKGQPVAPYNTTQFLMDDHDQEEPDLKTGLYSKRAAAKSDDTSDDDFMEEGGEEDGGSD
notes: non-native glycine that remains at the N-terminus after TEV protease cleavage; Hexim1, human, residues 142-253: Basic Region, linker with PYNT motif, Acidic Region; 15N-labelled as the reporter in the PRE NMR experiments; unlabelled in NativePAGE and mass photometry; also called Hexim1 central region construct; not shown: His6, N-terminal, cleaved; MBP, N-terminal, cleaved
B3: Hexim1 BR-L-AR(A201C^MTSL) (domain or fragment, human)
chain: B2 chain with A61C
modifications: MTSL nitroxide spin label on C201
notes: non-native glycine that remains at the N-terminus of BR-L-AR after TEV protease cleavage; Hexim1, human, residues 142-253 (BR-L-AR) with A201C; 15N-labelled; not shown: His6, N-terminal, cleaved; MBP, N-terminal, cleaved
B4: Hexim1 BR-L-AR(S183C^MTSL) (domain or fragment, human)
chain: B2 chain with S43C
modifications: MTSL nitroxide spin label on C183
notes: non-native glycine that remains at the N-terminus of BR-L-AR after TEV protease cleavage; Hexim1, human, residues 142-253 (BR-L-AR) with S183C; 15N-labelled; not shown: His6, N-terminal, cleaved; MBP, N-terminal, cleaved
B5: Hexim1 BR-L-AR(S233C^MTSL) (domain or fragment, human)
chain: B2 chain with S93C
modifications: MTSL nitroxide spin label on C233
notes: non-native glycine that remains at the N-terminus of BR-L-AR after TEV protease cleavage; Hexim1, human, residues 142-253 (BR-L-AR) with S233C; 14N in the inter-only experiment; not shown: His6, N-terminal, cleaved; MBP, N-terminal, cleaved
B6: Hexim1 BR-L-AR(S226C^MTSL) (domain or fragment, human)
chain: B2 chain with S86C
modifications: MTSL nitroxide spin label on C226
notes: non-native glycine that remains at the N-terminus of BR-L-AR after TEV protease cleavage; Hexim1, human, residues 142-253 (BR-L-AR) with S226C; not shown: His6, N-terminal, cleaved; MBP, N-terminal, cleaved
B7: Hexim1 BR-L-AR(S237C^MTSL) (domain or fragment, human)
chain: B2 chain with S97C
modifications: MTSL nitroxide spin label on C237
notes: non-native glycine that remains at the N-terminus of BR-L-AR after TEV protease cleavage; Hexim1, human, residues 142-253 (BR-L-AR) with S237C; not shown: His6, N-terminal, cleaved; MBP, N-terminal, cleaved
B8: Hexim1 L-AR-CC dimeric protein (domain or fragment, human, UniProt O94992 171-359, looked up)
chain: TWEEKKKFDEKQSLRASRIRAEMFAKGQPVAPYNTTQFLMDDHDQEEPDLKTGLYSKRAAAKSDDTSDDDFMEEGGEEDGGSDGMGGDGSEFLQRDFSETYERYHTESLQNMSKQELIKEYLELEKCLSRMEDENNRLRLESKRLGGDDARVRELELELDRLRAENLQLLTENELHRQQERAPLSKFGD
notes: Hexim1, human; linker (L), Acidic Region (AR) and coiled-coil domain (CC, 254-359); source: E. coli BL21-GOLD(DE3), purified

How the values were obtained:
Hexim1-A12m (human) = target: T1, Hexim1-A12m (human); experiment: ITC; conditions: ITC: 20 mM HEPES pH 7.5, 150 mM KCl, 1 mM TCEP, 295 K; NMR: 50 mM Na phosphate pH 6.2, 150 mM KCl, 0.02% NaN3, 5% D2O, 298 K; EMSA: binding buffer (20 mM HEPES …)
Hexim1-A3m (human) = target: T2, Hexim1-A3m (human); experiment: ITC; conditions: N=0.34; ITC: 20 mM HEPES pH 7.5, 150 mM KCl, 1 mM TCEP, 295 K; NMR: 50 mM Na phosphate pH 6.2, 150 mM KCl, 0.02% NaN3, 5% D2O, 298 K; EMSA: binding buffer (20 mM HEPES …)
Hexim1 full-length [1] = target: T4, Hexim1 full-length (human, UniProt O94992 1-359); experiment: ITC; conditions: N=1.40; protein in syringe (inferred from N); ITC: 20 mM HEPES pH 7.5, 150 mM KCl, 1 mM TCEP, 295 K; NMR: 50 mM Na phosphate pH 6.2, 150 mM KCl, 0.02% NaN3, 5% D2O, 298 K; EMSA: binding buffer (20 mM HEPES …)
Hexim1 full-length [2] = target: T4, Hexim1 full-length; experiment: ITC; N=0.49; ITC: 20 mM HEPES pH 7.5, 150 mM KCl, 1 mM TCEP, 295 K; NMR: 50 mM Na phosphate pH 6.2, 150 mM KCl, 0.02% NaN3, 5% D2O, 298 K; EMSA: binding buffer (20 mM HEPES); conditions: protein: recombinant; tags: MBP-His6 removed by TEV; non-native N-terminal G remains; chain copies: 2; hairpin
Hexim1 BR-L-AR = Hexim1 BR-L-AR (human, UniProt O94992 142-253); experiment: NMR; ITC: 20 mM HEPES pH 7.5, 150 mM KCl, 1 mM TCEP, 295 K; NMR: 50 mM Na phosphate pH 6.2, 150 mM KCl, 0.02% NaN3, 5% D2O, 298 K; EMSA: binding buffer (20 mM HEPES); conditions: protein: recombinant; tags: MBP-His6 removed by TEV; non-native N-terminal G; hairpin
[3] = target: the molecule itself; experiment: mass photometry; Refeyn TwoMP; freshly purified proteins alone or mixed as complexes, drop-diluted into phosphate-buffered saline pH 7.4 to 40 nM final total protein
[4] = target: the molecule itself; experiment: paramagnetic relaxation enhancement (PRE) NMR; total interaction experiment: 15N-labelled and MTSL-tagged BR-L-AR alone, captures both intra- and inter-monomer contacts; 15N-1H HSQC, 290.15 K, 600 MHz; 50 mM sodium phosphate pH 6.2, 150 mM KCl
[5] = target: B2; experiment: paramagnetic relaxation enhancement (PRE) NMR; inter-only experiment: 1:1 mixture of 15N-labelled untagged BR-L-AR (reporter) with 14N-labelled MTSL-tagged BR-L-AR (broadener); 15N-1H HSQC, 290.15 K, 600 MHz; 50 mM sodium phosphate pH 6.2, 150 mM KCl; conditions: both partners purified
Hexim1 BRARM1 = target: T3, Hexim1 BRARM1; experiment: NMR; Site2 shifted, not Site4; ITC: 20 mM HEPES pH 7.5, 150 mM KCl, 1 mM TCEP, 295 K; NMR: 50 mM Na phosphate pH 6.2, 150 mM KCl, 0.02% NaN3, 5% D2O, 298 K; EMSA: binding buffer (20 mM HEPES); conditions: protein: recombinant; tags: GB1-His6 removed by TEV; non-native N-terminal G; hairpin
Hexim1 full-length [6] = target: T4, Hexim1 full-length; experiment: ITC; N=0.47; ITC: 20 mM HEPES pH 7.5, 150 mM KCl, 1 mM TCEP, 295 K; NMR: 50 mM Na phosphate pH 6.2, 150 mM KCl, 0.02% NaN3, 5% D2O, 298 K; EMSA: binding buffer (20 mM HEPES); conditions: protein: recombinant; tags: MBP-His6 removed by TEV; non-native N-terminal G remains; chain copies: 2; hairpin
Hexim1 NBLA (N-BR-L-AR) = Hexim1 NBLA (N-BR-L-AR) (human, UniProt O94992 1-253); experiment: ITC; N=0.81; ITC: 20 mM HEPES pH 7.5, 150 mM KCl, 1 mM TCEP, 295 K; NMR: 50 mM Na phosphate pH 6.2, 150 mM KCl, 0.02% NaN3, 5% D2O, 298 K; EMSA: binding buffer (20 mM HEPES); conditions: protein: recombinant; hairpin with U40U41 and U63 bulges
Hexim1 full-length [7] = target: T4, Hexim1 full-length; experiment: ITC; N=0.76; ITC: 20 mM HEPES pH 7.5, 150 mM KCl, 1 mM TCEP, 295 K; NMR: 50 mM Na phosphate pH 6.2, 150 mM KCl, 0.02% NaN3, 5% D2O, 298 K; EMSA: binding buffer (20 mM HEPES); conditions: protein: recombinant; tags: MBP-His6 removed by TEV; non-native N-terminal G remains; chain copies: 2; hairpin with U40U41 and U63 bulges

Molecule: GGAUGUGAGGGCGAUCUGGCUUCGGCCUUCCUCCCUCACCGCUCCA [7SK SL1-p]
binding signal (fold tighter than wild-type Hexim1) (Hexim1-A12m (human)): 6
Kd (Hexim1-A3m (human)): 276 nM

Molecule: 7SK SL1-d(api)
Kd (Hexim1 full-length [1]): 96 nM

Molecule: GGAUGUGAGGGCGAUCUGGCUUCGGCCUUCCUCCCUCACCGCUCCA (structured_RNA) [7SK SL1-p]
Kd (Hexim1 full-length [2]): 2210 ± 197 nM

Molecule: GGCGAUCUGGCUGCGACAUCUGUCACCCCAUUGAUCGCC (structured_RNA) [7SK SL1alt (circular), loop version not stated]
binding result (Hexim1 BR-L-AR): binds

Molecule: B1
stoichiometry N [3]: 2

Molecule: B2
stoichiometry N [3]: 3 and 4

Molecule: B3
binding result [4]: binds

Molecule: B4
binding result [4]: binds

Molecule: B5
binding result [5]: binds

Molecule: B6
binding result [4]: binds
binding result [5]: binds

Molecule: B7
binding result [5]: binds

Molecule: GGCUGCGACAUCUGUCACCUUCGGGCUAGGCGGGUGUCCCC (structured_RNA) [7SK SL1-dIIm]
binding result (Hexim1 BRARM1): binds

Molecule: GGCUGUCACCUUCGGGCUAGGCGGCC (structured_RNA) [7SK SL1-dII]
Kd (Hexim1 full-length [6]): 1220 ± 129 nM

Molecule: GGCCAUUGAUCGCCUUCGGGCUGAUCUGGCC (structured_RNA) [7SK SL1-dI]
Kd (Hexim1 NBLA (N-BR-L-AR)): 83 ± 28 nM
Kd (Hexim1 full-length [7]): 780 ± 25 nM

Molecule: B8
stoichiometry N [3]: 2
